Measured values: article doi:10.1101/2023.10.13.562155 (bioRxiv, 2023)

Target: T1, human p75^NTR JXT domain (K273-D332) (human, UniProt P08138 273-332)
T1 sequence (looked up): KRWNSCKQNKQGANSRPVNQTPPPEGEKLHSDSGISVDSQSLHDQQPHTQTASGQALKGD
Experiment: NMR titration

B1: RhoGDI NTD^S34D (A2-A60) (domain or fragment, human, UniProt P52565 2-60, looked up)
chain: AEQEPTAEQLAQIAAENEEDEHSVNYKPPAQKDIQEIQELDKDDESLRKYKEALLGRVA
  binding result: binds
